T1: ALIX1−868∗^Strep (full-length ALIX with P801G and a C-terminal strep tag) (UniProt Q8WUM4 1-868, P801G)
T1 construct: the asterisk denotes P801G; Monomeric by AUC; source: E. coli, purified (Strep-Tactin Sepharose, Q-Sepharose HP, Superdex 200); not shown: Strep tag, C-terminal, kept
T1 sequence (looked up): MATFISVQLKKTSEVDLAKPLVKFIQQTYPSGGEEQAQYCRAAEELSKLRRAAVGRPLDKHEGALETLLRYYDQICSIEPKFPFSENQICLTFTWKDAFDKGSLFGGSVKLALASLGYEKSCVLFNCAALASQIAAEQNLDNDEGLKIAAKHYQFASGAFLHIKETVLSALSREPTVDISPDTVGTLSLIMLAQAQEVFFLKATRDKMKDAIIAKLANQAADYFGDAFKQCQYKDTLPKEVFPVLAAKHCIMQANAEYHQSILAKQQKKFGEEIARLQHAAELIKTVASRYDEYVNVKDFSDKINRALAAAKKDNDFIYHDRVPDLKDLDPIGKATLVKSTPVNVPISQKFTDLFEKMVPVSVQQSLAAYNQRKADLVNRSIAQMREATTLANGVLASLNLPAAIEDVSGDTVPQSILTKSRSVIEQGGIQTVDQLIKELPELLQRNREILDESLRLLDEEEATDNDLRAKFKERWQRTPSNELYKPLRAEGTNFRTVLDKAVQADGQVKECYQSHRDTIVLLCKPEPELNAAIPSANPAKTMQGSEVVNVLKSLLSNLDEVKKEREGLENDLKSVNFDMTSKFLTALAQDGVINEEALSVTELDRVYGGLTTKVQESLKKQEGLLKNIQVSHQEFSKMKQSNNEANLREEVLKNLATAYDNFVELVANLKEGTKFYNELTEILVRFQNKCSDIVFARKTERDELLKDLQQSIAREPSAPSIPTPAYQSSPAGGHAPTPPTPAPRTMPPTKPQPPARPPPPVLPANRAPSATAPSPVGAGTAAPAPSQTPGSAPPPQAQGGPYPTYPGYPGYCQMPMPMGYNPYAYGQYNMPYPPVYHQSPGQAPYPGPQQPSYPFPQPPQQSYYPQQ

T2: ALIX-Bro1 (Bro1 domain of ALIX) (UniProt Q8WUM4 3-392)
T2 construct: Bro1 domain of ALIX; residues up to 349 are spoken of
T2 sequence (looked up): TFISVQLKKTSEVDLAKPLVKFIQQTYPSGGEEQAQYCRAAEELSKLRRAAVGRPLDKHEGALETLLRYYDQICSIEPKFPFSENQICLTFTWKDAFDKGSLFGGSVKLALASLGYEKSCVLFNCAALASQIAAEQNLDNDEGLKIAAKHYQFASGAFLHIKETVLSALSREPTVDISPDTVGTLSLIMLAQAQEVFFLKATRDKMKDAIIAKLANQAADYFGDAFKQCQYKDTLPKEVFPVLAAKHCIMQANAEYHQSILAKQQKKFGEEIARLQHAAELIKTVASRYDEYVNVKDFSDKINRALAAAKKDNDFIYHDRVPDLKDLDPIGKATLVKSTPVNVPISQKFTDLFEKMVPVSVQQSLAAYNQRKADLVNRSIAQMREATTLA


Tests used:
Details in all cases: both partners purified
[1] = target: T1, ALIX1−868∗^Strep (full-length ALIX with …); assay: NMR titration; 30 μM 15N/2H-labeled CHMP4 construct with 90 μM unlabeled ALIX1-868* Strep; cross-peak heights; 30°C, 20 mM sodium phosphate (pH 6.5), 1 mM TCEP, 2 mM EDTA
[2] = target: T2, ALIX-Bro1 (Bro1 domain of ALIX); assay: ITC; 300 to 500 μM CHMP4 construct injected into 30 to 50 μM ALIX1-868* Strep or Bro1 in the cell; 25°C; 20 mM sodium phosphate (pH 6.5), 1 mM TCEP, 2 mM EDTA; independent site binding model
[3] = target: T1, ALIX1−868∗^Strep (full-length ALIX with …); assay: as above
[4] = target: T1, ALIX1−868∗^Strep (full-length ALIX with …); assay: ITC; as the other ITC but with 150 mM NaCl; CHMP4C construct injected into ALIX1-868* Strep; 25°C; for the AAA mutant 1500 μM into 300 μM ALIX

Row | binding result [1] | Kd [2] | Kd [3] | stoichiometry N [3] | Kd [4] | Binder
1 | binds | – | – | – | – | CHMP4C121−233^S191C,AAA (domain or fragment, UniProt Q96CF2 121-233, looked up, codon-optimized synthetic gene; also called CHMP4C with three alanine substitutions in its α6 motif (I225A, L228A, W231A); not shown: GB1, N-terminal, cleaved) ENMDLNKIDDLMQEITEQQDIAQEISEAFSQRVGFGDDFDEDELMAELEELEQEELNKKMTNIRLPNVPSCSLPAQPNRKPGMSSTARRSRAASSQRAEEEDDDAKQAAAAAT
2 | – | 0.9 ± 0.1 µM | 0.6 ± 0.1 µM | ~1 | 6.1 ± 0.7 µM | CHMP4C121−233^S191C (domain or fragment, UniProt Q96CF2 121-233, looked up, codon-optimized synthetic gene; Monomeric by AUC; also called charged multivesicular body protein 4C C-terminal fragment; not shown: GB1, N-terminal, cleaved) ENMDLNKIDDLMQEITEQQDIAQEISEAFSQRVGFGDDFDEDELMAELEELEQEELNKKMTNIRLPNVPSCSLPAQPNRKPGMSSTARRSRAASSQRAEEEDDDIKQLAAWAT
3 | – | 1 ± 0.2 µM | 0.9 ± 0.1 µM | ~1 | – | CHMP4B121−224^S184C (domain or fragment, UniProt Q9H444 121-224, looked up, codon-optimized synthetic gene; Monomeric by AUC; also called charged multivesicular body protein 4B C-terminal fragment; not shown: GB1, N-terminal, cleaved) DNMDIDKVDELMQDIADQQELAEEISTAISKPVGFGEEFDEDELMAELEELEQEELDKNLLEICGPETVPLPNVPSIALPSKPAKKKEEEDDDMKELENWAGSM

From publication PMC10348681, “Reversible phase separation of ESCRT protein ALIX through tyrosine phosphorylation” (Science Advances, 2023)
